{"source": "paper PMC12231599", "about": "“Elucidation of multiple high-resolution states of human MutSβ by cryo-EM reveals interplay between ATP/ADP binding and heteroduplex DNA recognition”", "key": {"[1]": {"molecular_target": "T1, MSH2 (MutSβ subunit);MSH3 (MutSβ subunit) (Homo sapiens;Homo sapiens, UniProt P43246;P20585 1-934;1-1137, |)", "test": "SPR (steady state); no ATP; 5 mM Mg2+; SPR: 25 mM HEPES pH 7.5, 150 mM KCl, 5 mM MgCl2, 1 mM DTT, 0.05% Tween, 0.05% BSA, 25 C; FRET: 50 mM HEPES pH 7.0, 200 mM NaCl, 1 mM MgCl2, 1 mM DTT, 0.05% Tween-20, RT", "details": "protein: recombinant;recombinant; tags: none;none; copies: 1;1; label: 5' biotin; blunt"}, "[2]": {"molecular_target": "T1, MSH2 (MutSβ subunit);MSH3 (MutSβ …)", "test": "SPR (steady state); 5 mM Mg2+; no ATP; SPR: 25 mM HEPES pH 7.5, 150 mM KCl, 5 mM MgCl2, 1 mM DTT, 0.05% Tween, 0.05% BSA, 25 C; FRET: 50 mM HEPES pH 7.0, 200 mM NaCl, 1 mM MgCl2, 1 mM DTT, 0.05% Tween-20, RT", "details": "protein: recombinant;recombinant; tags: none;none; copies: 1;1; label: 5' biotin; blunt, (CAG)2 6-nt extrahelical loop in strand 1"}, "[3]": {"molecular_target": "T1, MSH2 (MutSβ subunit);MSH3 (MutSβ …)", "test": "SPR (kinetic, preferred by authors); 5 mM Mg2+; no ATP; SPR: 25 mM HEPES pH 7.5, 150 mM KCl, 5 mM MgCl2, 1 mM DTT, 0.05% Tween, 0.05% BSA, 25 C; FRET: 50 mM HEPES pH 7.0, 200 mM NaCl, 1 mM MgCl2, 1 mM DTT, 0.05% Tween-20, RT", "details": "protein: recombinant;recombinant; tags: none;none; copies: 1;1; label: 5' biotin; blunt, (CAG)2 6-nt extrahelical loop in strand 1"}, "[4]": {"molecular_target": "T1, MSH2 (MutSβ subunit);MSH3 (MutSβ …)", "test": "FRET (DNA bending); no ATP; 100 nM protein; SPR: 25 mM HEPES pH 7.5, 150 mM KCl, 5 mM MgCl2, 1 mM DTT, 0.05% Tween, 0.05% BSA, 25 C; FRET: 50 mM HEPES pH 7.0, 200 mM NaCl, 1 mM MgCl2, 1 mM DTT, 0.05% Tween-20, RT", "details": "protein: recombinant;recombinant, tags: none;none, copies: 1;1, label: Cy5 strand 1, Cy3 strand 2, 5' digoxigenin, blunt"}}}
{"binder": "61 bp homoduplex, biotinylated (SPR) (dsDNA) DNA 1: CTGAAGCTTAGCTTAGGATCATCGAGGATCAGCTCGGTGCAATTCAGCGGTACCCAATTC DNA 2: GAATTGGGTACCGCTGAATTGCACCGAGCTGATCCTCGATGATCCTAAGCTAAGCTTCAG", "values": [{"measurement": "Kd", "setting": "[1]", "value": 3.32, "unit": "nM"}]}
{"binder": "61 bp (CAG)2 loop DNA, biotinylated (SPR) (dsDNA) DNA 1: CTGAAGCTTAGCTTAGGATCATCGAGGATCCAGCAGAGCTCGGTGCAATTCAGCGGTACCCAATTC DNA 2: GAATTGGGTACCGCTGAATTGCACCGAGCTGATCCTCGATGATCCTAAGCTAAGCTTCAG", "values": [{"measurement": "Kd", "setting": "[2]", "value": 0.265, "unit": "nM"}, {"measurement": "Kd", "setting": "[3]", "value": 0.0672, "unit": "nM"}]}
{"binder": "70 bp (CAG)1 loop DNA (FRET) (dsDNA, internal dye-dT) DNA 1: CACACGTTCCGAGATATCCTAGCAAGTGATCAGCGTCTATGTAGCTCAAGAGTTCGACTCAGCCTACACCGAG DNA 2: CTCGGTGTAGGCTGAGTCGAACTCTTGAGCTACATAGACGATCACTTGCTAGGATATCTCGGAACGTGTG", "values": [{"measurement": "binding result", "setting": "[4]; 3-nt CAG loop in strand 1", "value": "binds"}]}
{"binder": "70 bp (CAG)2 loop DNA (FRET) (dsDNA, internal dye-dT) DNA 1: CACACGTTCCGAGATATCCTAGCAAGTGATCAGCAGCGTCTATGTAGCTCAAGAGTTCGACTCAGCCTACACCGAG DNA 2: CTCGGTGTAGGCTGAGTCGAACTCTTGAGCTACATAGACGATCACTTGCTAGGATATCTCGGAACGTGTG", "values": [{"measurement": "binding result", "setting": "[4]; 6-nt (CAG)2 loop in strand 1", "value": "binds"}]}
{"binder": "70 bp (CAG)4 loop DNA (FRET) (dsDNA, internal dye-dT) DNA 1: CACACGTTCCGAGATATCCTAGCAAGTGATCAGCAGCAGCAGCGTCTATGTAGCTCAAGAGTTCGACTCAGCCTACACCGAG DNA 2: CTCGGTGTAGGCTGAGTCGAACTCTTGAGCTACATAGACGATCACTTGCTAGGATATCTCGGAACGTGTG", "values": [{"measurement": "binding result", "setting": "[4]; 12-nt (CAG)4 loop in strand 1", "value": "binds"}]}
